Laboratory results reported in the supplement of paper PMC9876800.

System: peptide library, one residue held at a place counted from the S/T acceptor
Test: relative phosphorylation of the sub-library (ratio to the mean residue at this position); higher = residue favoured
In short: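 Relative sub-library phosphorylation, a ratio to the mean residue at that position, was obtained by phosphorimaging and densitometry of spots on streptavidin membranes. Before capture, purified recombinant kinases were incubated for 90 min under kinase-specific conditions with 50 μM biotinylated degenerate peptide sub-libraries and 50 μM ATP spiked with γ-32P-ATP. Each sub-library fixed one residue at one position around a central Ser/Thr.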

Chain of GRK1, construct: Full length, human (Q15835 whole entry, looked up): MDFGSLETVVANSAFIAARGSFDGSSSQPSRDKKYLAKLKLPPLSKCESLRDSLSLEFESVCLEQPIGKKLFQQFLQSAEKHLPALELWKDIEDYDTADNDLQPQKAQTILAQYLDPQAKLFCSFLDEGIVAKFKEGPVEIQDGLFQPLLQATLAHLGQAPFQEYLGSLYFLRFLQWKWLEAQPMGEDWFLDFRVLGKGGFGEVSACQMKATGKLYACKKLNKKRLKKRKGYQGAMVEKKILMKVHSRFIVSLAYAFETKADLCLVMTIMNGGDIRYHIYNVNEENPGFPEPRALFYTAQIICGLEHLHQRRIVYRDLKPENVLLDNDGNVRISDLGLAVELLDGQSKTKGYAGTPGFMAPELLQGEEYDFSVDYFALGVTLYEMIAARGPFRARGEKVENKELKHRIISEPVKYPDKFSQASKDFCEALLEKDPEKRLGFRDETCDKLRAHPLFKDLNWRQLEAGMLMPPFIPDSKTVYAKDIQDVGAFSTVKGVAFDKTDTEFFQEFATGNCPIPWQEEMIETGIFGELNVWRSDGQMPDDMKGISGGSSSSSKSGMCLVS
Chain of DMPK, construct: aa24-433, human (Q09013 24-433, looked up): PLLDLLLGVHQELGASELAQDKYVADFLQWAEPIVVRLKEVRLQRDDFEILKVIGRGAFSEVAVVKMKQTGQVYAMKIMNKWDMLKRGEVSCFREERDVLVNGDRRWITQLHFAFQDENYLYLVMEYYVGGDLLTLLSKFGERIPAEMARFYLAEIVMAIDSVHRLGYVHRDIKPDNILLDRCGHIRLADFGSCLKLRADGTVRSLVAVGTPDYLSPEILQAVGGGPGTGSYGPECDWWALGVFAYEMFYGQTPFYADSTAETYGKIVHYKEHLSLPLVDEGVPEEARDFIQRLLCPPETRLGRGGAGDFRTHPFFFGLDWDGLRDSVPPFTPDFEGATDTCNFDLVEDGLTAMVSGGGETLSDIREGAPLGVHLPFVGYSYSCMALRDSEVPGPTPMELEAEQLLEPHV
Chain of STK38L, construct: Full length, human (Q9Y2H1 whole entry, looked up): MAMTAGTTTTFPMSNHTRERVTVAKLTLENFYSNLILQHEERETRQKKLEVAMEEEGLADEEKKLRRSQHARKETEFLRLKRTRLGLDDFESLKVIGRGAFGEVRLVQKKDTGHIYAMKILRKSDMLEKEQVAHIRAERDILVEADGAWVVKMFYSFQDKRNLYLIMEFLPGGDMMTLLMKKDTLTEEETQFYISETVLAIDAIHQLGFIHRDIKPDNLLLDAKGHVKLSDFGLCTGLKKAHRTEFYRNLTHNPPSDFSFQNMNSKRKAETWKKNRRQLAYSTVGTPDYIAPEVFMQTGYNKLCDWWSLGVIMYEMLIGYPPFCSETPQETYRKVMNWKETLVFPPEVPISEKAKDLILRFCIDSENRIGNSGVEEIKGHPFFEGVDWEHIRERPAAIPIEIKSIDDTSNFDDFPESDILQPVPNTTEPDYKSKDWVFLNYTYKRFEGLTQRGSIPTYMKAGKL

DMPK, construct: aa24-433, human (from UniProt Q09013)
relative phosphorylation
Conditions	at +1	at +2	at +3	at +4	at -1	at -2	at -3	at -4	at -5
A fixed	0.884	1.09	0.772	0.749	0.934	0.551	0.572	0.816	0.664
D fixed	0.54	1.27	0.59	0.767	0.487	0.294	0.309	0.393	0.359
E fixed	0.471	0.67	0.579	0.643	0.362	0.268	0.284	0.456	0.379
F fixed	0.68	0.838	0.963	0.954	0.739	0.349	0.269	0.657	0.8
G fixed	1.68	0.858	1.04	0.945	1.08	0.537	0.448	0.959	0.915
H fixed	1.2	1.38	1.14	1.05	1.01	0.716	0.776	0.898	1.07
I fixed	1.2	1.12	1.64	0.829	0.585	0.43	0.343	0.946	1.11
K fixed	1.05	1.23	1.03	1.47	2.01	2.67	3.21	2.42	2.72
L fixed	0.967	0.883	1.04	1.09	0.674	0.418	0.343	0.749	0.847
M fixed	0.961	0.75	0.779	0.916	0.755	0.485	0.297	0.749	0.756
N fixed	1.29	0.779	0.83	1.01	1.2	0.747	0.43	0.864	0.675
P fixed	0.622	0.808	0.79	1.18	1.74	0.474	0.461	0.796	0.872
Q fixed	1.25	1.06	0.882	1.07	1.22	0.933	0.877	0.922	0.882
R fixed	1.87	1.28	1.54	1.47	2.18	6.76	7.34	3.06	2.66
V fixed	0.943	1.28	1.5	0.825	0.605	0.507	0.369	0.95	0.803
W fixed	0.641	0.925	0.926	1.21	0.644	0.431	0.304	0.647	0.657
Y fixed	0.742	0.796	0.971	0.832	0.78	0.428	0.371	0.719	0.839
pThr fixed	0.678	1.19	0.865	0.862	0.521	0.441	0.48	0.575	0.561
pTyr fixed	0.522	0.996	0.772	0.617	0.52	0.387	0.493	0.548	0.689

STK38L, construct: Full length, human (from UniProt Q9Y2H1)
relative phosphorylation
Conditions	at +1	at +2	at +3	at +4	at -1	at -2	at -3	at -4	at -5
A fixed	0.661	1.19	0.645	0.811	0.671	0.847	0.656	1.03	0.951
D fixed	1.16	2.27	1.07	1.33	0.872	0.675	0.648	0.889	0.79
E fixed	1.1	0.721	0.987	1.21	0.636	0.712	0.554	0.812	0.582
F fixed	0.851	0.661	1.04	1.1	0.477	0.747	0.435	0.654	0.538
G fixed	1.38	2.25	1.6	1.15	1.68	1.2	0.833	1.39	0.971
H fixed	0.83	2.05	1.22	1.11	0.979	1.6	1.18	1.26	4.33
I fixed	0.832	0.568	0.826	0.711	0.238	0.265	0.23	0.403	0.345
K fixed	0.847	0.396	0.865	0.812	1.9	2.07	2.1	1.55	1.65
L fixed	0.804	0.421	0.788	0.856	0.619	0.315	0.243	0.481	0.433
M fixed	1.48	0.406	0.843	1.01	0.768	0.487	0.399	0.849	0.508
N fixed	1.61	1.09	1.22	1.24	1.43	1.53	1.03	0.989	0.792
P fixed	0.532	0.81	1.27	1.24	2.64	1.45	1.94	1.89	0.701
Q fixed	1.36	1.1	0.932	1.15	1.37	1.18	0.827	0.982	0.629
R fixed	0.577	0.391	0.59	0.588	1	1.9	4.36	1.63	1.7
V fixed	0.919	0.854	0.668	0.686	0.372	0.358	0.324	0.423	0.457
W fixed	1.09	0.958	1.39	0.955	0.545	1.01	0.598	0.942	0.884
Y fixed	0.961	0.856	1.04	1.05	0.799	0.64	0.657	0.829	0.741
pThr fixed	1.29	0.941	0.91	1.61	0.457	0.842	0.692	0.698	0.46
pTyr fixed	1.26	1.04	0.87	1.05	0.76	0.814	0.914	0.895	0.672

PRKG1, construct: Full length, human (from UniProt Q13976)
relative phosphorylation
Conditions	at +1	at +2	at +3	at +4	at -1	at -2	at -3	at -4	at -5
A fixed	0.819	1.43	0.964	0.841	0.831	0.24	0.611	1.1	1.11
D fixed	0.195	0.45	0.572	0.5	0.21	0.0553	0.075	0.315	0.381
E fixed	0.236	0.242	0.458	0.419	0.193	0.0546	0.0892	0.395	0.517
F fixed	1.29	1.16	1.23	1.13	1.05	0.201	0.447	0.986	1.08
G fixed	0.479	0.901	1.06	1.07	0.416	0.248	0.684	0.878	1.06
H fixed	1.2	1.62	1.49	1.31	1.25	0.518	1.48	1.3	1.24
I fixed	1.73	1.25	1.02	1.19	0.958	0.168	0.262	0.75	0.82
K fixed	0.623	0.642	0.669	0.715	1.42	5.12	2.17	1.53	1.43
L fixed	1.45	0.936	1.07	1.22	1.33	0.166	0.239	0.996	0.779
M fixed	1.56	1.03	1.26	1.22	1.43	0.171	0.351	1.31	0.877
N fixed	0.589	0.94	0.909	1.15	0.787	0.264	0.329	0.891	0.905
P fixed	0.177	0.576	0.743	1.35	0.718	0.13	0.421	0.58	0.8
Q fixed	0.967	1.16	0.964	1.02	0.868	0.402	0.674	0.851	0.848
R fixed	0.982	0.6	0.861	0.754	1.95	8.27	7.6	2.14	1.81
V fixed	2.26	1.53	1.03	0.847	1.16	0.544	0.273	0.77	0.914
W fixed	1.12	1.35	1.33	1.24	0.797	0.22	0.482	1.06	1.25
Y fixed	1.33	1.2	1.38	1.02	1.64	0.23	0.82	1.15	1.19
pThr fixed	0.343	0.228	0.412	0.444	0.174	0.142	0.214	0.542	0.627
pTyr fixed	0.365	0.324	0.493	0.5	0.324	0.098	0.248	0.487	0.659

GRK1, construct: Full length, human (from UniProt Q15835)
relative phosphorylation
Conditions	at +1	at +2	at +3	at +4	at -1	at -2	at -3	at -4	at -5
A fixed	0.624	1.06	0.886	1.02	0.737	0.553	0.76	1.15	1.16
D fixed	0.767	1.81	2.19	2.5	1.31	0.963	1.16	1.43	2.29
E fixed	2.89	1.47	2.19	2.42	1.39	1.28	1.19	1.75	1.74
F fixed	0.711	0.778	0.638	0.645	0.641	2.3	0.881	0.585	0.659
G fixed	0.605	0.939	1.68	1.06	0.652	0.519	0.912	1.29	2.07
H fixed	0.592	0.984	0.958	0.932	0.962	0.701	0.746	0.843	0.894
I fixed	1.47	0.921	0.682	0.734	0.654	0.86	0.841	0.627	0.556
K fixed	0.65	0.587	0.793	0.622	1.56	0.619	0.706	0.673	0.682
L fixed	1.23	0.823	0.662	0.653	0.852	1.02	0.583	0.568	0.491
M fixed	0.973	0.961	0.721	0.662	0.723	0.708	0.671	0.645	0.533
N fixed	0.621	1.3	0.861	0.861	1.23	0.691	1.07	0.933	0.983
P fixed	0.522	0.592	0.823	1.18	2.04	1.11	2.74	2.68	1.31
Q fixed	1.11	1.06	0.956	0.82	0.932	0.65	0.966	0.897	0.708
R fixed	0.605	0.682	0.633	0.544	0.993	1.02	1.07	0.813	0.678
V fixed	2.36	1.03	0.703	0.8	0.811	0.66	0.956	0.777	0.638
W fixed	0.575	0.917	0.874	0.841	0.566	0.74	0.62	0.673	0.799
Y fixed	0.701	1.1	0.754	0.707	0.953	2.61	1.13	0.662	0.81
pThr fixed	2.35	0.972	1.21	3.6	3.08	4.99	3.2	1.84	1.43
pTyr fixed	3.09	2.14	1.38	2.98	1.92	1.75	1.76	1.46	1.13
